Tests used:
Rat SLIT3-N = target: T1, Rat SLIT3-N (rat, UniProt O88280 34-1119, limits assumed); test: HTRF competition: d2-labelled rat SLIT3-N binding to human ROBO2 on HEK293 cells; geometric mean, n=3
T1 construct: domain: SLIT3-N; d2-labelled in the HTRF assay
T1 sequence (looked up): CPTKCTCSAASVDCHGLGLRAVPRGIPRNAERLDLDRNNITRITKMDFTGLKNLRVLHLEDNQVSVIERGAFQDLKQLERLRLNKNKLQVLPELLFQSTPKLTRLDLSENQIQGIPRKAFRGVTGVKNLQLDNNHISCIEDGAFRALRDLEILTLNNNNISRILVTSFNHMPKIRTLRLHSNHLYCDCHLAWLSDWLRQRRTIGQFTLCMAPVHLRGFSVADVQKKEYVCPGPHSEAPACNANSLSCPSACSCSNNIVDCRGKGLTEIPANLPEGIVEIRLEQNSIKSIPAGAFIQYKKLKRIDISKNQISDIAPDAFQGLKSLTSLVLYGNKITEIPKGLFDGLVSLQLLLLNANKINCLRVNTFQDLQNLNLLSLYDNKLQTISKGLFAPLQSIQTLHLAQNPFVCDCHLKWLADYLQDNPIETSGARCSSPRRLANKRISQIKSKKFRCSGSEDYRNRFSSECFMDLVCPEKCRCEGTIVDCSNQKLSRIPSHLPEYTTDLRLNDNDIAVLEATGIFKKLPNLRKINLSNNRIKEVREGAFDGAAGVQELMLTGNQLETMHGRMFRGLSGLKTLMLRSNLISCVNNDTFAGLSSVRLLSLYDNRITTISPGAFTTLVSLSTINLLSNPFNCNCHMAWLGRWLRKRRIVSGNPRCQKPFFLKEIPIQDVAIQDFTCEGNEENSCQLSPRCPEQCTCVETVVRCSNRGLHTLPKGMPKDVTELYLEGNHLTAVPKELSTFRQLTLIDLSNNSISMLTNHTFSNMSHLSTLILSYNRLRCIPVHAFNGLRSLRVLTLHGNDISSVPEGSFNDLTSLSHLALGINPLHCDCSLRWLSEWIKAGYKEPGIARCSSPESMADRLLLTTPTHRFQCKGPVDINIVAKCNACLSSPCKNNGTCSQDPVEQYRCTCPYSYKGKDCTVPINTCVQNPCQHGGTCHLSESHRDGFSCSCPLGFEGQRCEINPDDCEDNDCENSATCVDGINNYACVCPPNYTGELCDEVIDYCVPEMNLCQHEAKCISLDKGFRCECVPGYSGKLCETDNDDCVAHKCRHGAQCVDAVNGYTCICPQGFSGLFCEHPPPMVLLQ
Protocol: (§1) After incubation, fluorescence at 665 nm and 620 nm was measured on an Envision multilabel plate reader. The HTRF Ratio was calculated as follows: fluorescence at 665 nm/fluorescence at 620 nm×10,000. […] The IC₅₀ for each SLITx-N was determined using an 11-point, 4-fold dilution series with a top concentration of 4000 nM.

Human SLIT1-N = target: T2, Human SLIT1-N (human, UniProt O75093 34-1127, limits assumed); test: HTRF competition: d2-labelled human SLIT1-N binding to human ROBO2 on HEK293 cells; geometric mean, n=3
T2 construct: domain: SLIT1-N; d2-labelled in the HTRF assay
T2 sequence (looked up): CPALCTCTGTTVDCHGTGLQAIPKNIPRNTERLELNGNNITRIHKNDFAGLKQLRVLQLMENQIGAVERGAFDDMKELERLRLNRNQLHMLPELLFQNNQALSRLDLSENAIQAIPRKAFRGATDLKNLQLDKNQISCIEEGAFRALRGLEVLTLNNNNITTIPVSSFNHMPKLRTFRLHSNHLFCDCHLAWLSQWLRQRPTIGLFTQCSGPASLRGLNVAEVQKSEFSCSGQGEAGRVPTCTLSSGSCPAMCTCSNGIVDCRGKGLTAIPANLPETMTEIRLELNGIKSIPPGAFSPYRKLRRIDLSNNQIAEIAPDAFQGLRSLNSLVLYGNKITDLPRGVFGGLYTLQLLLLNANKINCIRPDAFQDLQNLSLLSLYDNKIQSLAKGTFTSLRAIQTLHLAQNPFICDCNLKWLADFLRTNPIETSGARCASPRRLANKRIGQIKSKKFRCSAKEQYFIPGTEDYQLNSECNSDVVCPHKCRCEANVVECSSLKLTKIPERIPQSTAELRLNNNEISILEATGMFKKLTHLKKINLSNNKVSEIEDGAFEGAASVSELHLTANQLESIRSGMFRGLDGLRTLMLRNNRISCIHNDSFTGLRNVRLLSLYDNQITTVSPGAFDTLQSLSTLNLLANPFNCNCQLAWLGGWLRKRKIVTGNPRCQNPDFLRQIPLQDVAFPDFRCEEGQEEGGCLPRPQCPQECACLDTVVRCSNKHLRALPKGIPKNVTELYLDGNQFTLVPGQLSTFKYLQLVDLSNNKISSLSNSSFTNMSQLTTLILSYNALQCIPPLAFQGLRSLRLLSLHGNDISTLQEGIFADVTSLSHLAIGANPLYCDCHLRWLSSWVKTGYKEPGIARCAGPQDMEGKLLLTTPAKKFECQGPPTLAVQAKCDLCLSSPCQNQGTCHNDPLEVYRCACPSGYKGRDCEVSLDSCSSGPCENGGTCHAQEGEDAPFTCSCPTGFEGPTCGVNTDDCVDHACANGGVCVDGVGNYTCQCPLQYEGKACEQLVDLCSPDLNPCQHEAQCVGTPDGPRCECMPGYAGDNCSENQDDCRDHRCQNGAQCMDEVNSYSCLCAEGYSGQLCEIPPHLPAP
Protocol: as §1

IC50 (Rat SLIT3-N): 3 nM
IC50 (Human SLIT1-N): 5.9 nM
B1: ROBO2-Fc 2.2 (Fc fusion)
chain: SRLRQEDFPPRIVEHPSDVIVSKGEPTTLNCKAEGRPTPTIEWYKDGERVETDKDDPRSHRMLLPSGSLFFLRIVHGRRSKPDEGSYVCVARNYLGEAVSRNASLEVALLRDDFRQNPTDVVVAAGEPAILECQPPRGHPEPTIYWKKDKVRIDDKEERISIRGGKLMISNTRKSDAGMYTCVGTNMVGERDSDPAELTVFERGGSGGSEPKSSDKTHTCPPCPAPEAAGAPSVFLFPPKPKDTLMISRTPEVTCVVVDVSHEDPEVKFNWYVDGVEVHNAKTKPREEQYNSTYRVVSVLTVLHQDWLNGKEYKCKVSNKALPAPIEKTISKAKGQPREPQVYTLPPSREEMTKNQVSLTCLVKGFYPSDIAVEWESNGQPENNYKTTPPVLDSDGSFFLYSKLTVDKSRWQQGNVFSCSVMHEALHNHYTQKSLSLSPG
notes: Labelled with Alexa Fluor 647 in the flow cytometry assay; also called ROBO-Fc 2.2; ROBO2-Fc 2.2-AF647

— patent publication US20210214414A1 (Pfizer, published 2021)
